Assay results taken from the RNAGym collection of RNA variant scans (doi:10.1073/pnas.2313332121).

B1: TPR t1 (parent)
chain: GACCAAUCUGCCCUCAGAGCUCGAGAACAUCUUCGGAUGCAGAGGAGGCAGGCUUCGGUGGCGCGAUAGCGCCAACGUCCUCAACCUCCAAUGCAUCCCACCACAUGAUGAUGCCUGAAGAGCCUUGGUUUUUUG

Variants of: B1
Test: polymerase ribozyme fitness, log enrichment relative to wild type (log ratio); higher = more active; in vitro selection for triplet polymerase activity
Summary of the method: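 Fitness measures genotype enrichment against wild-type enrichment on a logarithmic scale, with inverse-variance-weighted averaging of replicates. The logarithm is base 2, and genotypes were kept only with ≥10 input reads and ≥1 read per output in Illumina sequencing. The sequenced libraries came from one triplicate in vitro selection round, including frozen incubation at −7 °C, of PCR-built, transcribed mutant libraries of each subunit of a heterodimeric triplet polymerase ribozyme.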

Row | Variant | polymerase ribozyme fitness (log ratio)
1 | U9C A37U G110U | -0.951
2 | U9A A105C G122A | -1.54
3 | U9A G39U G45U | -0.618
4 | U9A G65C A111U C123U G128A U133C | -4.71
5 | C8U G71C U87A | -2.97
6 | C8U C86A | -1.13
7 | U9A C40G G113A | -0.901
8 | C8U U38A C70U | -1.62
9 | C8U U78C | 0.388
10 | C8U U78A | 0.175
11 | C8U C40U G47A | -1.72
12 | C8U C40A C86A U130C | -2
13 | U9A A27G C114U | -1.28
14 | U9A C31G G60A C89G A111C G127A | -7
15 | C8U U14A G36A C72U | -2.09
16 | C8U C53A | 0.141
17 | U9A G42C C62A C101U | -3.42
18 | U9A C72U | 0.716
19 | C8U C79A | -0.138
20 | C8U G47C G52A G113A | -3.3
21 | C8U G93A C94U A118U | -0.514
22 | U9A G48U A50U G60A C86G | -1.49
23 | U9A G52U C72A C88U C124A | 1.2
24 | C8U G57A | -0.0154

Row | Variant | polymerase ribozyme fitness (log ratio)
25 | U9A C114U | -0.999
26 | U9A C13A C22G G48C G71A | -5.83
27 | U9A C73U C123G U134C | 2.44
28 | U9A C49U G110A | -1.43
29 | C8U G93C G120A | 1.29
30 | U9A G58A G61A C85A | -1.75
31 | U9A A16G C28U U54G C89G C123G U131G | -3.93
32 | C8U G128A | -1.25
33 | C8U G39U | 0.386
34 | C8U G39A | 0.0776
35 | C8U C49U G61A | 0.346
36 | C8U C97U | -0.0319
37 | C8U G10C C13A C49G C53A C101A U133A | -3
38 | C8U G42U G48U C79A G122A U132A | -4.72
39 | C8U G48U G71U A74U C104A G117A C124U | -6.05
40 | C8U C64A | -6.53
41 | C8U G60C U129C | -0.854
42 | U9A C62G C94U | -0.686
43 | U9A C101G | -1.55
44 | C8U G36U G60C | -1.66
45 | U9A U106A | 0.641
46 | U9A C15A C56G C70U C76U G120C G122U U129C | -6.98
47 | C8U C40U A43U G77C | -1.32
48 | C8U C28A C72A A83C G110A | 1.02

Row | Variant | polymerase ribozyme fitness (log ratio)
49 | C8U C88G | -0.442
50 | U9C A37C C114G G117U | -3.29
51 | U9A G10C U54A C86A G110U U125A | -3.13
52 | C8U G63U A90U G113C | -3.6
53 | C8U C49U C94G C104U U106A U112C | -1.29
54 | C8U C76A A118G | -0.712
55 | C8U C64U C72A U109A | -4.83
56 | U9A C20G C72U U96G C124U | -3.12
57 | U9A C11U A66C G117U | -5.04
58 | U9A C70U C88A C101U U132A | -0.202
59 | U9A U116C U125A | 0.151
60 | U9A G19U C88A C114A | 1.72
61 | U9A C62U | 0.575
62 | C8U C53A G117A U130G | -0.499
63 | C8U C62G | -0.903
64 | U9A C114U G120A C123U | -2.11
65 | U9A G127U | 0.46
66 | U9A C53A U87G | 0.985
67 | U9A G44C U55C U109G | -4.29
68 | C8U U109A | -5.29
69 | C8U C34A G35U G63U C82U G120A U130A | -4.37
70 | U9A G58C A66G C85U | -0.571
71 | U9A C98A C104U | -3.44
72 | U9A G110U G117A | -2.51

Row | Variant | polymerase ribozyme fitness (log ratio)
73 | C8U C123A U132A | 1.43
74 | U9A C22A C89A G113U A118U G135U | -5.73
75 | C8U C56G C64U C80A | -3.18
76 | C8U G48U A50U C86U U96A | -0.998
77 | C8U U106A G127U | 0.137
78 | U9A C73A A95G C104A G110U | -3.62
79 | U9A A26U C101G | -4.48
80 | C8U G48A | -0.239
81 | U9A C20G C64A U112A G128A | -5.8
82 | U9A G10A A46U G69U C79U C102G | -3.8
83 | U9A U96A C124U | 1.28
84 | C8U G47U G69A U131G | -5.7
85 | U9A G107A | -4.08
86 | U9A C53A C86U | 0.27
87 | C8U G23A U54C C73A | -6.59
88 | C8U U38G C72A U92A C115G | -5.69
89 | U9C A46U C53U A84C C88U | -1.01
90 | C8U C40G G42U C49A U130A | -2.72
91 | U9A C13A | 0.483
92 | U9A C13U | 0.446
93 | U9A C34G C76G C85G | -6.38
94 | U9A G42A A43G G47U C56U | -3.28
95 | U9A C40G | 0.644
96 | C8U C72A A100C U132C | -0.83

Row | Variant | polymerase ribozyme fitness (log ratio)
97 | U9A C40A G61U G93C C94G C124U | -0.833
98 | C8U C124G | 2.32
99 | C8U G36C G63U | -1.95
100 | C8U U55C C73A C76G A121U | 1.02
101 | U9A C13U C64G | -5.17
102 | U9C A16U G63C | 0.269
103 | U9A A24U G71A G107A U125G | -7.09
104 | U9A C88U U92A | -2.44
105 | U9A C12U G120U G128C | 0.498
106 | U9A C40G G42U | -1.9
107 | U9A G39U G48A C72G C88U C89U G110C | -6.13
108 | U9A C31G G61U A83C G107C | -1.25
109 | U9A C40G G71U | -0.173
110 | U9A U38A U54A U96A U133G | -1.53
111 | U9A C53U C123G | 1.66
112 | C8U C28G C70A U131A | -4.27
113 | C8U U130C | 0.805
114 | U9A A119G | 0.948
115 | C8U C53G C56A C86U U96G G117U | -2.48
116 | C8U C70U C79G C94G | -3.8
117 | U9A A43U A50C | -1.66
118 | U9A G19C A27G U106C | -4.96
119 | U9A G36A A119G | 0.68
120 | C8U U96A C123G | 1.65

Row | Variant | polymerase ribozyme fitness (log ratio)
121 | U9C C11G G36U U116A C123G | -1.92
122 | U9A G69C G113C C115U | -4.52
123 | C8U U54A | 0.528
124 | U9A C12A C13A A18G A100U | -6.25
125 | U9A C31U G44U G52U G61U A111U | -6.18
126 | C8U G10A C124A | 2.42
127 | C8U G39C U96C C101U U116A | -3.66
128 | C8U G45C G71A C85A | -3.29
129 | U9A A18U C64U U92C | -3
130 | U9A C62G C97U U109G | -7.26
131 | C8U C53A C99U C101G | -3.52
132 | C8U U14C A75U G120A | 1.44
133 | C8U G47A U59A A74U C124A | 0.355
134 | U9A A46U A74C C88G | -2.48
135 | U9C | 0.614
136 | U9A | 0.517
137 | C8U U96A | -0.0448
138 | C8U C28U C56A U87G A119G U130C | -1.12
139 | U9C A41C | -0.191
140 | U9A G117C | -1.79
141 | U9A G117A | 1.04
142 | C8U C70A C73A C97U | -3.27
143 | C8U G39U C49G G63C U78A G128A | -4.09
144 | U9A A27G C72U C114U | -1.39

Row | Variant | polymerase ribozyme fitness (log ratio)
145 | C8U U21A A50C C53G G60A C88U U125C | -5.83
146 | C8U C73A A84U G128A | -1.97
147 | U9C A27U C73A C99A | -7.21
148 | C8U U14A | -0.398
149 | U9A G36U G63U | -1.27
150 | U9A G17U C62A C88U A91G U132A | -4.47
151 | U9C A16U C88A A95C A111U | -5.45
152 | U9A U21A G45C C70A C82U U116G U132C G135C | -1.83
153 | U9A C11G C15G A91C G93A | -3.49
154 | U9A U14G A41C G42U G60U G93U A121C | 0.0286
155 | C8U U112A | 1.33
156 | U9A G45U G113U G122U | -2.61
157 | C8U U9C G52U U55C | -0.0264
158 | U9A G48U C64U C72A | 0.0767
159 | C8U G48A G57C G60U C82A G127A | -1.38
160 | C8U G61C U116A | -3.22
161 | U9A G36U | 0.766
162 | U9A G19C C85A U112A | -0.364
163 | C8U U38C C115A | 0.431
164 | U9A G93A C115U | -1.19
165 | C8U G45A C72G | -0.658
166 | C8U G47A | -0.477
167 | U9A C20G U116C | -2.71
